According to publication doi:10.1101/2021.04.22.440577 (bioRxiv, 2021):

Columns and labels:
[1] = target: 4-fold tyrosine-phosphorylated C-Tir (pC-Tir), EPEC Tir residues 388-550 phosphorylated by Fyn (enteropathogenic Escherichia coli (EPEC)) (UniProt B7UM99); experiment: NMR titration
[2] = target: the molecule itself; experiment: SEC + other: SAXS

Chain of 4-fold tyrosine-phosphorylated C-Tir (pC-Tir), EPEC Tir residues 388-550 phosphorylated by Fyn (enteropathogenic Escherichia coli (EPEC)) (B7UM99 388-550): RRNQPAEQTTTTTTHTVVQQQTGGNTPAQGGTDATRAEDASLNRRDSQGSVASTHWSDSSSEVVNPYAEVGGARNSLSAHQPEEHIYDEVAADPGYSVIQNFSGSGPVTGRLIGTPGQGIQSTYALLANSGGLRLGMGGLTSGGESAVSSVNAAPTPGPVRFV

## C-terminal SH2 domain (C-SH2) of host tyrosine phosphatase SHP-1 (domain or fragment)
[1]
  apparent local KD of the remaining pY sites (pY474, pY483, pY511): 3 to 9 μM
  fold enhancement of binding at the Y511 ITIM against unphosphorylated C-Tir: 10 fold

B1: N-terminal cytosolic region of EPEC Tir (N-Tir, residues 1-233) (domain or fragment, enteropathogenic Escherichia coli (EPEC), UniProt B7UM99 1-233, looked up)
chain: MPIGNLGNNVNGNHLIPPAPPLPSQTDGAARGGTGHLISSTGALGSRSLFSPLRNSMADSVDSRDIPGLPTNPSRLAAATSETCLLGGFEVLHDKGPLDILNTQIGPSAFRVEVQADGTHAAIGEKNGLEVSVTLSPQEWSSLQSIDTEGKNRFVFTGGRGGSGHPMVTVASDIAEARTKILAKLDPDNHGGRQPKDVDTRSVGVGSASGIDDGVVSETHTSTTNSSVRSDPK
[2]
  stoichiometry N: 2

B2: Structured central part of N-Tir (N-Tir 60-200, NS-Tir) (domain or fragment, enteropathogenic Escherichia coli (EPEC), UniProt B7UM99 60-200, looked up)
chain: SVDSRDIPGLPTNPSRLAAATSETCLLGGFEVLHDKGPLDILNTQIGPSAFRVEVQADGTHAAIGEKNGLEVSVTLSPQEWSSLQSIDTEGKNRFVFTGGRGGSGHPMVTVASDIAEARTKILAKLDPDNHGGRQPKDVDT
[2]
  stoichiometry N: 2
